Positions count from the first letter of the chain named.
Assays:
[1] = test system: T1, Affinity-purified GST-tagged hXBP1s S288A mutant
T1 sequence: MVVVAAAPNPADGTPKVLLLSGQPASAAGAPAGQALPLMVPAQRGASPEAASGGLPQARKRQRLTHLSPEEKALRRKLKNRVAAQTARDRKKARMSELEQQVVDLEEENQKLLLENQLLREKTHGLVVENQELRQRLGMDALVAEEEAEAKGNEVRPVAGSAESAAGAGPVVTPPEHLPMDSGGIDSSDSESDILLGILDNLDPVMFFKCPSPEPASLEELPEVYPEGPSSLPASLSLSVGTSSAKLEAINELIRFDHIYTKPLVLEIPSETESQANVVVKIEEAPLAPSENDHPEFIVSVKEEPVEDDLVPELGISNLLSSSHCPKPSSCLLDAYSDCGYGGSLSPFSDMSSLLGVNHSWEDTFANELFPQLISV

[2] = test system: T2, Affinity-purified GST-tagged wild type (WT) hXBP1s
T2 sequence: T1 sequence with A288S

Question: Which results are given for “Active recombinant human JNK2α2 (Millipore)”?
Answer: in vitro kinase assay, phosphorylation in the presence of ^32P (autoradiography) [1]: mutation of Ser288 to A abolished JNKs-mediated phosphorylation of hXBP1s; in vitro kinase assay, phosphorylation in the presence of ^32P (autoradiography) [2]: JNK1, JNK2 or JNK3 was sufficient to directly phosphorylate hXBP1s
